The values below come from patent US20140199315A1 (Biogen, published 2014).

Assay [1] deals with human Sp35 protein expressed on transfected cells (human) (UniProt Q96FE5). In words: FACS on live human LINGO-1 (Sp35) transfected 293 cells, PE-labelled secondary antibody alone (no primary antibody), FL2-H.
Assay [2] deals with T1, mouse Sp35 protein (form in the assay not stated) (mouse, UniProt Q9D1T0 36-532, limits assumed).
T1 construct: also called mSp35; murine Sp35
T1 sequence (looked up): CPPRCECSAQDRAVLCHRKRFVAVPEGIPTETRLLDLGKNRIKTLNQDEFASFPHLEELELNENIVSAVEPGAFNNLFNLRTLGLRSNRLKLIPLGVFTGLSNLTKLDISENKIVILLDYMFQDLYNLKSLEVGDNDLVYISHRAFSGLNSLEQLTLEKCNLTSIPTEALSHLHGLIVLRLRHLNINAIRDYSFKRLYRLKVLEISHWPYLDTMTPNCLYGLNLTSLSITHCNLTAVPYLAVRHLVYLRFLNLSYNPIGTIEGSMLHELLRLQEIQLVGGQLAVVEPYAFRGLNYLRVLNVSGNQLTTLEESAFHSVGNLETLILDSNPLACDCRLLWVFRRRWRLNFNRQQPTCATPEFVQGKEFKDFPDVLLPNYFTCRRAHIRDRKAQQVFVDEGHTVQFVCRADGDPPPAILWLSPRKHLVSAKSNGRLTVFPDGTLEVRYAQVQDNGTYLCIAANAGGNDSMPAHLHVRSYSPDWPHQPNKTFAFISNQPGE
The experiment in a line: method not stated (Example 5); KD determination (Example 5, method not stated), murine Sp35.

The target in assay [3] is T2, Sp35 fragment amino acids 34-532 of SEQ ID NO:2 fused to hinge and Fc of IgG1 (human, UniProt Q96FE5 40-538).
T2 construct: the mature proteins should be the same; not shown: hinge and Fc regions of IgG1
T2 sequence: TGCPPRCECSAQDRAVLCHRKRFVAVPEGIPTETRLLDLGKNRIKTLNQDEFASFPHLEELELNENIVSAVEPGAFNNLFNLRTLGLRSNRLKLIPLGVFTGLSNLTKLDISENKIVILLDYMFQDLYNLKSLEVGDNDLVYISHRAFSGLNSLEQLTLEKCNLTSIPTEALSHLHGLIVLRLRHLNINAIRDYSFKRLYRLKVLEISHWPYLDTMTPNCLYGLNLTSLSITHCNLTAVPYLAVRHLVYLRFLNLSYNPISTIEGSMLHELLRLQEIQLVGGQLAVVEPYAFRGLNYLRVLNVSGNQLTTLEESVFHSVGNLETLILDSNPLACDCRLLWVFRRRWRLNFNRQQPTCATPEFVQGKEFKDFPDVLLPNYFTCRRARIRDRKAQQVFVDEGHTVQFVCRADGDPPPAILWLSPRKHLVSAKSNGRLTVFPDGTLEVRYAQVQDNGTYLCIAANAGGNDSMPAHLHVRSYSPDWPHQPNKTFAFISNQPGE
In words: ELISA. For orientation: In an ELISA, binding on a coated surface is turned into a signal by an enzyme label.

In assay [4] the target is T3, Sp35-Fc fusion protein (human Sp35 residues 1-532 fused to hinge and Fc of human IgG1) (human, UniProt Q96FE5 40-538).
T3 construct: also called LINGO-1-Fc; not shown: hinge and Fc region of human IgG1
T3 sequence: T2 sequence
The experiment in a line: ELISA.

For assay [5], the target named is T4, full-length human Sp35 with N-terminal hemagglutinin (HA) tag, from lysate of transfected COS-1 cells (human, UniProt Q96FE5 40-620).
T4 construct: also called huSp35 (immunoprecipitation); not shown: HA tag at the N-terminus
T4 sequence: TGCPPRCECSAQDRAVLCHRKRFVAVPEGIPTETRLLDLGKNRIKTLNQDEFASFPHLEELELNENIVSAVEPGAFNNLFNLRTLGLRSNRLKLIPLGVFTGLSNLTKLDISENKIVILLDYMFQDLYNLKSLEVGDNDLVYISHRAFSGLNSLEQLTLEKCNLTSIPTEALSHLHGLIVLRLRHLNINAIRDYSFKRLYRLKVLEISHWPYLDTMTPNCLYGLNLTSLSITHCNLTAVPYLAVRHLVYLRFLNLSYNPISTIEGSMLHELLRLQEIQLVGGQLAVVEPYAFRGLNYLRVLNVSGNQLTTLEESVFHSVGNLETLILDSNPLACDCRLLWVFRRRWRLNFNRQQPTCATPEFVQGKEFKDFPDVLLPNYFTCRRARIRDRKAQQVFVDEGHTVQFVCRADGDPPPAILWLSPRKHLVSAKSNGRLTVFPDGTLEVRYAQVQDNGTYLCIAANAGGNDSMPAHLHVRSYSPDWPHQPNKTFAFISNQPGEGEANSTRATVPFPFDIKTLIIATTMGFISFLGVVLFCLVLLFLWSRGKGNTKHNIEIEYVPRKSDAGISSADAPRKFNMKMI
In words: immunoprecipitation. The protocol: (§1) To perform the immunoprecipitation, COS-1 cells expressing Sp35, fused to a hemaglutinin (HA) tag on the N-terminus, were produced by transiently transfecting COS-1 cells with a DNA construct which expresses the full-length Sp35 protein with an HA tag. Cells were harvested 48 hr after transfection and were lysed in 1 ml lysis buffer (50 mM HEPES, pH 7.5, 150 mM NaCl, 1.5 mM MgCl₂, 1 mM EGTA, 1% Triton X-100 and 10% glycerol) for 30 min at 4° C. After centrifugation at 14,000×g for 15 min, the supernatants were incubated with ProteinA/G-Sepharose beads (Santa Cruz) at 4° C. for 1 hr, and then incubated at 4° C. for 1 hr with either the 1A7 or the 2F3 anti-Sp35 murine monoclonal antibodies. The beads were washed 3 times with lysis buffer, boiled in Laemmli sample buffer, subjected to 4-20% SDS-PAGE, and analyzed by Western blotting using an antibody which recognizes the HA tag. As shown on the SDS-PAGE gel, monoclonal antibodies 1A7 and 2F3, immunoprecipitated human and murine Sp35 (FIG. 1). […] Similarly, monoclonal antibodies 1G7, 2B10, 2F3, 3P4C2.2D2, 3P4C8.2G9, Li01, Li03, Li05, Li06, Li07, Li08, Li11 and Li12 immunoprecipitate human or mouse or human and mouse Sp35 (See Table 3B). Additionally, Li08 immunoprecipitates AP-Sp35 and monoclonal antibodies 1B6.4 and 3E3.1 immunoprecipitate endogenous Sp35 (See Table 3B).

Assay [6] has as its target T5, Sp35 polypeptide consisting of amino acids 34-534 of human Sp35 (human, UniProt Q96FE5 40-540).
T5 construct: No fusion partner stated
T5 sequence: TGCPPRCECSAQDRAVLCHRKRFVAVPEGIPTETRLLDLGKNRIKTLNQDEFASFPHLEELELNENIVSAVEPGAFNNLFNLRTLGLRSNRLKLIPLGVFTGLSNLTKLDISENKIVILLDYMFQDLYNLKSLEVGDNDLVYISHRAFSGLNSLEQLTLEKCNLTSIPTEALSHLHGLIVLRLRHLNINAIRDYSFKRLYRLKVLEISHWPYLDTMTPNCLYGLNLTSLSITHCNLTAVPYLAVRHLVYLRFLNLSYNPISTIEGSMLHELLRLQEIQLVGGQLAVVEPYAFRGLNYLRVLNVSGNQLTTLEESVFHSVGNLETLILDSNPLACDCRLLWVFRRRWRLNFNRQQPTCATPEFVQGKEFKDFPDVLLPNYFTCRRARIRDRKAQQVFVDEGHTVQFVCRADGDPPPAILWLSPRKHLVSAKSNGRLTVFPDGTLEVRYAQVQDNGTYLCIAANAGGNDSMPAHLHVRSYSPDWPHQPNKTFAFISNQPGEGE
The experiment in a line: similar experiments (ELISA).

In assay [7] the target is T6, mouse Sp35 protein expressed on transfected cells (mouse, UniProt Q9D1T0 36-614).
T6 construct: whole, on cells; also called mSp35
T6 sequence (looked up): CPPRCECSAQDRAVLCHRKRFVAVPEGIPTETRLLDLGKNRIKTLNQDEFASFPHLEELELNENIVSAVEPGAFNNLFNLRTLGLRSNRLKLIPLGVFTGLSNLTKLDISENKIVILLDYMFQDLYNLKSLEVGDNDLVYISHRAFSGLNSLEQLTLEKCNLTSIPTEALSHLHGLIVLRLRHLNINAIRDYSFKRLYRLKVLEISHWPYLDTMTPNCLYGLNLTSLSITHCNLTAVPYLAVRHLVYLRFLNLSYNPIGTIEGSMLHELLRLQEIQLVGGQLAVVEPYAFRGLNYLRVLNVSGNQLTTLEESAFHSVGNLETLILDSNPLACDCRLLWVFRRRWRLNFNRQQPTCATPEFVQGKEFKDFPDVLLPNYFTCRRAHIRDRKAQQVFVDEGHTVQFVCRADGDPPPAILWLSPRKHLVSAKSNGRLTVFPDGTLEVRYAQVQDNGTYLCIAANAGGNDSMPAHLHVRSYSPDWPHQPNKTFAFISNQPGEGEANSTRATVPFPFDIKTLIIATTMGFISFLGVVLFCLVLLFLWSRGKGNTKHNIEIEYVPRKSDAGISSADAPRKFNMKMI
In words: FACS. An excerpt:
To further characterize the binding properties of hybridoma-derived anti-Sp35 mAbs 1A7 and 2F3 produced as described in Example 3, binding to both fixed and live COS-7 or 293 cells expressing mouse or human Sp35 was compared.
On the technique in general: Flow cytometry measures light scatter and fluorescence of single cells or particles in a stream.

The target of assay [8] is T7, full-length murine Sp35 with HA tag, from lysate of transfected cells (mouse, UniProt Q9D1T0 34-614, limits assumed).
T7 construct: also called mSp35 (immunoprecipitation); not shown: HA tag
T7 sequence (looked up): T4 sequence with S261G, V315A, R386H
The experiment in a line: immunoprecipitation. The protocol: as §1

Residue numbers refer to the chain shown, from its start.

As for 2nd Ab only (antibody), in assay [1], the (FL2-H) Geom. Mean amounted to 6.6, the (FL2-H) Mean is 8.78, the (FL2-H) Median was determined as 6.76 and the fraction of cells in the marker gate (FL2-H histogram) turned out to be 5.52.

B1: 1A7 (antibody, V domains shown)
VH: QVQLVQSGPELKKPGETVKISCKASGYTFTNYGMNWVKQAPGKGLKWMGWINTDTGEPTYTEDFQGRFAFSLETSASTVYLQFNNLKNEDTATYFCAREGVHFDYWGQGTTVTVSS
VL: QIVLTQSPAIMSASPGEKVTMTCSASSSVSYMHWYQQKSGTSPKRWIYDTSKLASGVPARFSGSGSGTSYSLTISSMEAEDAATYYCQQWSSNPFTFGSGTKLEIK
notes: murine hybridoma monoclonal antibody; also called monoclonal antibody 1A7; MAb 1A7
One may read the Kd as a measure of binding affinity in units of concentration. Low values mean a tighter complex, high ones a looser complex. In assay [2], B1 gave a Kd of 20 µM.

B2: 3P1D10.2C3 (antibody, V domains shown)
VH: QVQLQQSGAELARPGASVKLSCRASGYTFTSSWTQWVKQRPGQGLEWIGAIYPGDGDTRYTQKFKGKATLTADKSSSTAYMQLSSLASEDSAVYYCARHNSYGMDYWGQGTSVTVSS
VL: DIVMTQSPSSLTVTAGEKVTMSCKSSQSLLNSGNQKNYLTWYQQKPGQPPKLLIYWASTRESGVPDRFTGSGSGTDFTLTINSVQAEDLAVYYCQNDYSYPLFTFGSGTKLEIR
notes: murine hybridoma monoclonal antibody
B2: the binding result in assay [3], in assay [4], in assay [5] and in assay [6] was “binds” each time.

B3: 3P1E11.3B7 (antibody, V domains shown)
VH: B2 VH
VL: B2 VL with N37S
Consider B3, for which the binding result in assay [3], in assay [4], in assay [5] and in assay [6] was “binds” each time.

B4: 2F3 (antibody, V domains shown)
VH: EVKLEESGGGLVQPGGSMKLSCAASGFTFSDAWLDWVRQSPEKGLEWVAEIRSKANNHATNYAESVKGRFTISRDDSKSSVYLQMNSLRAEDTGIYFCTPSFAYWGQGTTVTVSS
VL: DIQMTQSPASLSASVGETVTITCRASGNIYNYLAWFQQKQGKSPQLLVYNAKTLPDGVPSRFSGSGSGTQYFLKINSLQPEDFGSYYCQHFWAIPYTFGGGTKLEIKR
notes: murine hybridoma monoclonal antibody; also called monoclonal antibody 2F3; MAb 2F3
Turning to B4, the binding result in assay [7] and in assay [8] was “binds” throughout.
